Measured values taken from patent US20040038369A1, “Airway-specific trypsin-like enzymes and method of using the same” (priority 2000, published 2004).

Legend:
PAR-4 = target: T1, PAR-4 (Homo sapiens, UniProt Q96RI0); assay: Calcium influx in PAR-4-expressing insect cells; format: cell-based; conditions: AST 2 units/ml; trypsin, thrombin 0.1 to 10 units/mL
T1 construct: expressed in transfected cells; host or cells: Sf9 insect cells infected with recombinant baculovirus VL-PAR (pVL1393)
T1 sequence (Q96RI0 18-385): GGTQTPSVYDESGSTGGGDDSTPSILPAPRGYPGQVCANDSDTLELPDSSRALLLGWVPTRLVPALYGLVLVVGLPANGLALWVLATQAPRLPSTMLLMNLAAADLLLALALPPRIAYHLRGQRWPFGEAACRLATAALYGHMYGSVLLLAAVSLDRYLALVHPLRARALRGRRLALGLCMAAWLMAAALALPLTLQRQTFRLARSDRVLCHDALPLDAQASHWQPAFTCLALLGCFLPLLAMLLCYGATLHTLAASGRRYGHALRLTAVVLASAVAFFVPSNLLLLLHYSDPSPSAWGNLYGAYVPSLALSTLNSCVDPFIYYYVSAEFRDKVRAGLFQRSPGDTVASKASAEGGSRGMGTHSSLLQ
Experimental: The above-obtained recombinant baculovirus VL-PAR for expressing the PAR was used to infect 1.0×10^7 Sf9 cells sowed on a 75 cm^2 flask at an MOI=2, and was then left and stationally cultured at 27° C. for 40 hours. After the culture, the infected cells were recovered and then subjected to a calcium influx experiment to-confirm the function of the PAR.
The recovered infected cells (about 5×10^6 cells) were once washed with HEPES-Tyrode buffer solution-Ca^2+ (−) pH 7.4, and then suspended in 5 mL of HEPES-Tyrode buffer solution (containing Fura2-AM, 1 μg/mL) to load the Fura2-AM on the cells at 27° C. for 30 minutes. The suspension was centrifuged at 800 rpm at room temperature for 5 minutes to recover the cells. The cells were twice washed with HEPES-Tyrode buffer solution-Ca^2+ (−) pH 7.4 and then resuspended in 5 mL of HEPES-Tyrode buffer solution-Ca^2+ (−) pH 7.4. The cell suspension was mixed with 5 μL of 1M CaCl2 to give a final concentration of 1 mM CaCl2, and then incubated in a shaded state at room temperature for 5 minutes. The prepared Fura2-AM-loaded infected cells were dispensed into a 96 well plate in a volume of 100 μL/well, further subjected to the dispensation of HEPES-Tyrode buffer solution-C^2+ (+) pH 7.4 in a volume of 80 μL/well, and then assayed with a Fluorescence Drug Screening System (made by Hamamatsu Photonics Co.). […]

[1] = system: Muc5AC mRNA in NCI-H292 cells; assay: Muc5AC mRNA expression in NCI-H292 by real time PCR; format: cell-based, human; conditions: HAST 300 mU/mL, 24 hours
Experimental: NCI-H292 cells (purchased from ATCC) were suspended in 10% FCS-containing RPMI-1640 (produced by Gibco Corp.), sowed on a 96 well plate (produced by Falcon Corp.) in a density of 6.0×10^4 cells/cm^2, cultured for 72 hours, subjected to the replacement of the culture solution by RPMI-1640 containing 0.1% of BSA, and further cultured for 24 hours.
Before added to the cells, leupeptin in various concentrations was reacted with 300 mU/mL of HAST on ice for 30 minutes, and further heated at 37° C. Then, the culture solution in the wells was wholly exchanged by the culture medium containing the HAST or leupeptin to start the treatment, and the treatment was carried out for 24 hours. HAST (300 mU/mL) thermally treated at 99° C. for 10 minutes as a control, EGF alone (1 ng/mL), and a combination of EGF (5 ng/mL) with leupeptin (10^−5 M) were also similarly treated. The number of the samples was 3.
An EGF treatment sample was continuously diluted five times to prepare a standard. […]
(§1) For both the Muc5AC and the β-actin, the expression quantities of the samples were relatively compared from the obtained Ct values and the standard straight line. […]
as §1

How did the “Ca2+ influx” value (PAR-4) turn out when “HAST: human airway-specific trypsin-like enzyme; propeptide moiety bound to trypsin-like protein moiety via a disulfide bond” was run?
Its value is “observed”.

And the Muc5AC gene expression [1]?
Its Muc5AC gene expression is “promoted”.
